T1: Full-length human NT5E (recombinant, in-house) (human, UniProt P21589 27-549)
T1 construct: also called hNT5E; hNT5EWT
T1 sequence: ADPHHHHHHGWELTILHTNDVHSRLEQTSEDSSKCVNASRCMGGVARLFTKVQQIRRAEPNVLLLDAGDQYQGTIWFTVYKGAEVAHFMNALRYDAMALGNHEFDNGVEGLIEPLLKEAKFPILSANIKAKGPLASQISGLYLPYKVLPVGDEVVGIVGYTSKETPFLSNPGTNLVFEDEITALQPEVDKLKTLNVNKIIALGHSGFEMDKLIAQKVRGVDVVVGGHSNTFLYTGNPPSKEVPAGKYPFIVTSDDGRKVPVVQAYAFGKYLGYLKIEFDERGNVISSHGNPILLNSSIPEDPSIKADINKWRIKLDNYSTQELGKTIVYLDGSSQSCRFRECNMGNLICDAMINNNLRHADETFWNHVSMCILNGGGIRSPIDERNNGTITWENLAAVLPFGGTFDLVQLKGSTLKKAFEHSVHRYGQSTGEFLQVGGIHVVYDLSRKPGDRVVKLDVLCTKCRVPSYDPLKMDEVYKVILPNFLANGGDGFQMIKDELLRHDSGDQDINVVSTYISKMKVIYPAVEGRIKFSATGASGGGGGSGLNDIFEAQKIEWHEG

T2: Full-length murine NT5E (recombinant) (murine, UniProt Q61503 29-552)
T2 construct: also called mNT5E
T2 sequence: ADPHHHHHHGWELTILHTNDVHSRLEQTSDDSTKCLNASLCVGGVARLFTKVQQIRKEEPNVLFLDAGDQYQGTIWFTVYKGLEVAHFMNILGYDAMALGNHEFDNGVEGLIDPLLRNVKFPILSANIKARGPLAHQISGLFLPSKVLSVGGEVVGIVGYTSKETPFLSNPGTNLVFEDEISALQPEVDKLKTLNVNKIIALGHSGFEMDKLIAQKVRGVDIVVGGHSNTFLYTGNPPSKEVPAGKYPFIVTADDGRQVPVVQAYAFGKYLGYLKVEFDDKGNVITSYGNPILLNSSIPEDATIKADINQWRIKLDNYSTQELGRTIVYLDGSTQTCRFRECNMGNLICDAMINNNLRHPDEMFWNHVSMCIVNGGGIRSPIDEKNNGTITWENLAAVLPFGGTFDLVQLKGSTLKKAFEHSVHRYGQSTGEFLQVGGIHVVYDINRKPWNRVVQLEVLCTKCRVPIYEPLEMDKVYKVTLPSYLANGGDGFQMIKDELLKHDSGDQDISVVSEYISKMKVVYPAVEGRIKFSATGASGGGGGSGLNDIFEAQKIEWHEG

T3: murine NT5E expressed on 4T1 cells (murine, UniProt Q61503 29-551)
T3 construct: whole, on cells; also called mouse NT5E-expressing 4T1 cells
T3 sequence (looked up): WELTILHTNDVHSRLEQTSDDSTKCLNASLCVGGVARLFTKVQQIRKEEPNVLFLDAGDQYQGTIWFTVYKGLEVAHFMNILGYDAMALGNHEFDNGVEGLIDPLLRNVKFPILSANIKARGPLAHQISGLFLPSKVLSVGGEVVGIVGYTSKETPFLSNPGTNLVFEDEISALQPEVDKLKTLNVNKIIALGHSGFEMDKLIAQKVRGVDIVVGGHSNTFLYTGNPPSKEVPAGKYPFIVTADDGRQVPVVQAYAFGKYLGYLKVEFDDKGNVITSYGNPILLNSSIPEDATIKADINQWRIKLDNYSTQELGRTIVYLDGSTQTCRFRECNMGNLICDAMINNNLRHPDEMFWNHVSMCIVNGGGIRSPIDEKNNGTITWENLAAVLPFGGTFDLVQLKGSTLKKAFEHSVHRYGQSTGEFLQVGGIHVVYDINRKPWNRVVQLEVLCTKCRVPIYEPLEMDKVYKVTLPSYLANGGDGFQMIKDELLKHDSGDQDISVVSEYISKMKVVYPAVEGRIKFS

B1: 1789 Fab (Fab, V domains shown)
VH: EVQLVESGGGLVQPGGSLRLSCAASGFNVSYSSIHWVRQAPGKGLEWVASISSSSGYTYYADSVKGRFTISADTSKNTAYLQMNSLRAEDTAVYYCARNYWGWYPFYYFAFDYWGQGTLVTV
VL: DIQMTQSPSSLSASVGDRVTITCRASQSVSSAVAWYQQKPGKAPKLLIYSASSLYSGVPSRFSGSRSGTDFTLTISSLQPEDFATYYCQQGWDYPITFGQGTKVEIKR
B2: 1789 IgG (antibody, V domains shown)
VH: EVQLVESGGGLVQPGGSLRLSCAASGFNVSYSSIHWVRQAPGKGLEWVASISSSSGYTYYADSVKGRFTISADTSKNTAYLQMNSLRAEDTAVYYCARNYWGWYPFYYFAFDYWGQGTLVTVSS
VL: B1 VL

Tests used:
[1] = target: T1, Full-length human NT5E (recombinant, …); test: SPR, His-captured NT5E, no ATP
Procedure: (§1) All SPR experiments were performed at 25° C. using MASS-1 (Bruker) instrument. hNT5E, mNT5E and cNT5E were immobilized onto a nitrilotriacetic acid (NTA) sensor chip via His-tag. For kinetic experiments, after ligand immobilization, 2-fold serial dilutions of the Fabs were injected. After double-reference subtraction data were analyzed with BiaEvaluation (GE Healthcare) or Sierra Analyser (Bruker) software. The experiments were carried in buffers in presence and absence of 1 mM ATP to compare the kinetic parameters of the Fabs binding to closed and open form of NT5E.

[2] = target: T2, Full-length murine NT5E (recombinant); test: SPR, His-captured NT5E, 1 mM ATP; SPR, 1 mM ATP
Procedure: as §1

[3] = target: T3, murine NT5E expressed on 4T1 cells; test: flow cytometry on 4T1 cells, 1 mM ATP
Procedure: Human MDA-MB-231 cells and murine 4T1 cells were grown to 90% confluency, detached with 5 mM EDTA for 15 min at 37° C. and then resuspended in 37° C. lx PBS (#10010031, Gibco) supplemented with 1% FBS and 1OpM ZnCl2. Separate working buffers (WB) of PBS and 1% FBS with or without fixed nucleotide concentrations were used throughout all washing steps to maintain constant condition. In 96-well plates (#3799, Costar), 0.2×10⁶ cells were added per well. The plates were spun at 500×g for 5 min and the supernatant was removed. Anti-NT5E antibodies were diluted to the desired concentration in 100 μL WB, added to the cells and the plates were incubated for 20 min at 37° C. Plates were spun and cells were washed twice with WB then spun a second time. Cells were stained with 100 μL of secondary antibody (Alexa Fluor 647 AffiniPure Goat Anti-Human IgG, F(ab′)2 fragment specific, #109-605-006, Jackson, 1:200) dilution and plates were incubated for 20 min at 37° C. Cells were washed twice with WB then fixed on ice with WB supplemented with 0.5% PFA. Fixing solution was removed by centrifugation and cells were resuspended in cold 1× PBS. Samples were analyzed by flow cytometry using CytoFLEX (Beckman Coulter) and mean fluorescence intensity (MFI) data was extracted using FlowJo software. Resulting binding data was plotted using OriginLab.

Binder | Kd [1] [nM] | koff [1] [s⁻¹] | kon [1] [M⁻¹ s⁻¹] | Kd [2] [nM] | koff [2] [s⁻¹] | kon [2] [M⁻¹ s⁻¹] | EC50 [3] [nM]
B1 | 760 | 0.044 | 57000 | 160 | 0.014 | 85000 | –
B2 | – | – | – | – | – | – | 37.3
